In patent US11230581B2, “Peptides and combination of peptides for use in immunotherapy against ovarian cancer and other cancers” (Immatics Biotechnologies GmbH, priority 2015, dated 2022):

Target: HLA-A*02:01 (Homo sapiens, UniProt P04439, D140Y/D185E/D98H/E176V/E277Q/G131W/G231S/I119V/I121R/I166T/I218V/L300P/L318F/N151K/N90K/P208A/P217A/Q86G/Q94H/R138H/R169H/T345S)
Test: MHC binding assay (UV-ligand exchange, β2m ELISA, peptide exchange yield)
Conditions: binding of HLA-class I restricted peptides to HLA-A*02:01, UV-ligand exchange
In short: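 Peptide-MHC complexes formed by UV-ligand exchange, cleaving a UV-sensitive placeholder peptide in favour of the test peptide. Exchange yield measured by ELISA: monomers diluted 100-fold onto streptavidin-coated plates, 1 h 37 °C, detected with 2 ug/ml HRP anti-β2m and TMB, absorbance at 450 nm.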

Row | Substance | Peptide exchange (MHC class I binding score, peptide exchange yield)
1 | 462 (KLAKQPETV; listed as Homo sapiens) [compound 462] | “+++” (≥50 = +++)
2 | 463 (SLVESHLSDQLTL; listed as Homo sapiens) [compound 463] | “+++” (≥50 = +++)
3 | 464 (ALNDCIYSV; listed as Homo sapiens) [compound 464] | “+++” (≥50 = +++)
4 | 465 (QLCDLNAEL; listed as Homo sapiens) [compound 465] | “+++” (≥50 = +++)
5 | 466 (VLIANLEKL; listed as Homo sapiens) [compound 466] | “++++” (≥75% = ++++)
6 | 467 (FLAKDFNFL; listed as Homo sapiens) [compound 467] | “+++” (≥50 = +++)
7 | 468 (YLRSVGDGETV; listed as Homo sapiens) [compound 468] | “+++” (≥50 = +++)
8 | 469 (YLASDEITTV; listed as Homo sapiens) [compound 469] | “+++” (≥50 = +++)
9 | 471 (YLYNNMIAKI; listed as Homo sapiens) [compound 471] | “+++” (≥50 = +++)
10 | 472 (KLLEVSDDPQV; listed as Homo sapiens) [compound 472] | “+++” (≥50 = +++)
11 | 473 (AMATESILHFA; listed as Homo sapiens) [compound 473] | “+++” (≥50 = +++)
12 | 474 (YLDPALELGPRNV; listed as Homo sapiens) [compound 474] | “+++” (≥50 = +++)
13 | 475 (LLLNEEALAQI; listed as Homo sapiens) [compound 475] | “+++” (≥50 = +++)
14 | 476 (ALMERTGYSMV; listed as Homo sapiens) [compound 476] | “+++” (≥50 = +++)
15 | 477 (ALLPASGQIAL; listed as Homo sapiens) [compound 477] | “+++” (≥50 = +++)
16 | 478 (YLLHEKLNL; listed as Homo sapiens) [compound 478] | “+++” (≥50 = +++)
17 | 479 (SLFGNSGILENV; listed as Homo sapiens) [compound 479] | “+++” (≥50 = +++)
18 | 480 (ALLEDSCHYL; listed as Homo sapiens) [compound 480] | “+++” (≥50 = +++)
19 | 481 (GLIEDYEALL; listed as Homo sapiens) [compound 481] | “+++” (≥50 = +++)

Row | Substance | Peptide exchange (MHC class I binding score, peptide exchange yield)
20 | 484 (SLIEKVTQL; listed as Homo sapiens) [compound 484] | “+++” (≥50 = +++)
21 | 485 (NVPDSFNEV; listed as Homo sapiens) [compound 485] | “+++” (≥50 = +++)
22 | 486 (AVMESIQGV; listed as Homo sapiens) [compound 486] | “+++” (≥50 = +++)
23 | 487 (LLINSVFHV; listed as Homo sapiens) [compound 487] | “+++” (≥50 = +++)
24 | 488 (FLAEDPKVTL; listed as Homo sapiens) [compound 488] | “+++” (≥50 = +++)
25 | 489 (KMWEELPEVV; listed as Homo sapiens) [compound 489] | “+++” (≥50 = +++)
26 | 490 (FLLQHVQEL; listed as Homo sapiens) [compound 490] | “+++” (≥50 = +++)
27 | 491 (GLNDRSDAV; listed as Homo sapiens) [compound 491] | “++” (≥20% = ++)
28 | 492 (SLFDGFADGLGV; listed as Homo sapiens) [compound 492] | “+++” (≥50 = +++)
29 | 493 (GLLGEKTQDLIGV; listed as Homo sapiens) [compound 493] | “+++” (≥50 = +++)
30 | 494 (ALQPEPIKV; listed as Homo sapiens) [compound 494] | “++” (≥20% = ++)
31 | 495 (FIFSEKPVFV; listed as Homo sapiens) [compound 495] | “+++” (≥50 = +++)
32 | 496 (FLVEKQPPQV; listed as Homo sapiens) [compound 496] | “+++” (≥50 = +++)
33 | 497 (GLLEKLTAI; listed as Homo sapiens) [compound 497] | “+++” (≥50 = +++)
34 | 498 (KLWTGGLDNTV; listed as Homo sapiens) [compound 498] | “+++” (≥50 = +++)
35 | 499 (KIFDIDEAEEGV; listed as Homo sapiens) [compound 499] | “++” (≥20% = ++)
36 | 500 (SLMEDQVLQL; listed as Homo sapiens) [compound 500] | “+++” (≥50 = +++)
37 | 501 (LLDPNVKSIFV; listed as Homo sapiens) [compound 501] | “+++” (≥50 = +++)

More lines, now with the values ahead:

Row | Peptide exchange (MHC class I binding score, peptide exchange yield) | Substance
38 | “+++” (≥50 = +++) | 502 (RLLAQVPGL; listed as Homo sapiens) [compound 502]
39 | “+++” (≥50 = +++) | 503 (SLNHFTHSV; listed as Homo sapiens) [compound 503]
40 | “++” (≥20% = ++) | 504 (GLSDGNPSL; listed as Homo sapiens) [compound 504]
41 | “++” (≥20% = ++) | 505 (SLAPGDVVRQV; listed as Homo sapiens) [compound 505]
42 | “+++” (≥50 = +++) | 506 (KLLGKVETA; listed as Homo sapiens) [compound 506]
43 | “+++” (≥50 = +++) | 507 (KLIDDQDISISL; listed as Homo sapiens) [compound 507]
44 | “+++” (≥50 = +++) | 508 (ILAQEQLVVGV; listed as Homo sapiens) [compound 508]
45 | “+++” (≥50 = +++) | 509 (FLFDTKPLIV; listed as Homo sapiens) [compound 509]
46 | “++” (≥20% = ++) | 510 (KLYSVVSQL; listed as Homo sapiens) [compound 510]
47 | “++” (≥20% = ++) | 511 (FLDPYCSASV; listed as Homo sapiens) [compound 511]
48 | “+++” (≥50 = +++) | 512 (SLSEIVPCL; listed as Homo sapiens) [compound 512]
49 | “++” (≥20% = ++) | 513 (SLWPSPEQL; listed as Homo sapiens) [compound 513]
50 | “+++” (≥50 = +++) | 514 (ILVDWLVQV; listed as Homo sapiens) [compound 514]
51 | “+++” (≥50 = +++) | 515 (LLQELVLFL; listed as Homo sapiens) [compound 515]
52 | “++” (≥20% = ++) | 516 (AVGPASILKEV; listed as Homo sapiens) [compound 516]
53 | “+++” (≥50 = +++) | 517 (LLMPIPEGLTL; listed as Homo sapiens) [compound 517]
54 | “+++” (≥50 = +++) | 518 (KLNAEVACV; listed as Homo sapiens) [compound 518]
55 | “+++” (≥50 = +++) | 519 (GLLHLTLLL; listed as Homo sapiens) [compound 519]
56 | “+” (≥10% = +) | 520 (LAVHPSGVAL; listed as Homo sapiens) [compound 520]
57 | “+++” (≥50 = +++) | 521 (MLLTKLPTI; listed as Homo sapiens) [compound 521]
58 | “++” (≥20% = ++) | 522 (TLWYRSPEV; listed as Homo sapiens) [compound 522]
59 | “++” (≥20% = ++) | 523 (YQIPRTFTL; listed as Homo sapiens) [compound 523]
60 | “++” (≥20% = ++) | 524 (ALIENLTHQI; listed as Homo sapiens) [compound 524]
61 | “+++” (≥50 = +++) | 525 (VLLEAGEGLVTI; listed as Homo sapiens) [compound 525]
62 | “++” (≥20% = ++) | 526 (RLAEVGQYEQV; listed as Homo sapiens) [compound 526]
63 | “++++” (≥75% = ++++) | 527 (FLLEPGNLEV; listed as Homo sapiens) [compound 527]
64 | “+++” (≥50 = +++) | 528 (SVAEGRALMSV; listed as Homo sapiens) [compound 528]
65 | “+++” (≥50 = +++) | 529 (LLADELITV; listed as Homo sapiens) [compound 529]
66 | “+++” (≥50 = +++) | 530 (VMYADIGGMDI; listed as Homo sapiens) [compound 530]
